Test results reported in PMC8481291 (Nature Communications, 2021).
Values joined by “and” are separate entries in the source; they are usually repeats but may differ in a detail not shown here. Equal values may be shown once. Each block holds one molecule with its values, some of them ahead of it.

Legend:
[1] = target: tES–F116H(–) (Archaeoglobus fulgidus); test: AUC
[2] = target: tES–F116H(+) (Archaeoglobus fulgidus); test: AUC
[3] = target: tES–F116H(+/–) (Archaeoglobus fulgidus); test: AUC
[4] = target: tES–F116H(+) (Archaeoglobus fulgidus); test: AUC; sedimentation of tES–F116H/POI samples (1 µM) in PBS, 20 °C, absorbance at 280 nm; POI loaded into tES by pH shift 5.8 to 8.0 and dialysis
AUC = target: the molecule itself; test: AUC
[5] = target: tES–F116H(+) (Archaeoglobus fulgidus); test: AUC; remark: listed apart in the source

Molecule: rFasxiator (natural protein)
stoichiometry N (rFasxiator per tES shell) [1]: 3

Molecule: Renilla luciferin 2-monooxygenase (from UniProt P27652 1-311) (enzyme)
stoichiometry N (rLuc per tES shell) [4]: 2 and 1

Second part, led by results:

stoichiometry N (p53 per tES shell) [2]: 1 | stoichiometry N (p53 per tES shell) [3]: 1
Molecule: Tumor protein 53, stabilized clone (from UniProt P04637 1-393) (natural protein)

stoichiometry N (sAP per tES shell) [5]: 1
B1: Shrimp alkaline phosphatase (enzyme, UniProt Q9BHT8 1-475, looked up)
chain: KAYWNKDAQDALDKQLGIKLREKQAKNVIFFLGDGMSLSTVTAARIYKGGLTGKFEREKISWEEFDFAALSKTYNTDKQVTDSAASATAYLTGVKTNQGVIGLDANTVRTNCSYQLDESLFTYSIAHWFQEAGRSTGVVTSTRVTHATPAGTYAHVADRDWENDSDVVHDREDPEICDDIAEQLVFREPGKNFKVIMGGGRRGFFPEEALDIEDGIPGEREDGKHLITDWLDDKASQGATASYVWNRDDLLAVDIRNTDYLMGLFSYTHLDTVLTRDAEMDPTLPEMTKVAIEMLTKDENGFFLLVEGGRIDHMHHANQIRQSLAETLDMEEAVSMALSMTDPEETIILVTADHGHTLTITGYADRNTDILDFAGISDLDDRRYTILDYGSGPGYHITEDGKRYEPTEEDLKDINFRYASAAPKHSVTHDGTDVGIWVNGPFAHLFTGVYEENYIPHALAYAACVGTGRTFCDEK
notes: also called sAP; AP
stoichiometry N (AUC): 2
